How the values were obtained:
Assay type in all cases: in vivo
[1] = tested on: Actinobacillus pleuropneumoniae (App); test: App challenge of pigs, prophylactic low or high doses of IL-1ra or IL-1ra+IL-4 (Table 8); details: for rate of gain: last 10 days of challenge, FIG. 44
Procedure: Blood was sampled from pigs by venipuncture at −24 h, +0 h, +24 h and +3 weeks from challenge. Blood was assayed for immunological parameters as previously described. Pigs were weighed at day −1, day 10 and at 3 weeks.

[2] = Growth performance of weaner pigs treated with IL-1ra or saline, with or without in-feed antibiotics (Example 1); details: for warm carcass weight: FIG. 6; for rate of gain over the grower phase: D79 and D93, FIG. 3
Procedure: Recombinant porcine. IL-1ra was expressed in E. coli and purified using a polyhis tag system. IL-1ra was tested for biological activity in a bioassay prior to the start of the experiment.
Male weaner pigs (28 days old) were allocated to treatment groups of 20 as described in Table 1. The mean weight for each treatment group was equal, with equal variance. Pigs were housed in group pens of 20, with 2 pens provided with medicated water and feed as per current industry standards, while 2 pens were given unmedicated water and feed. Pigs were injected twice weekly with recombinant IL-1ra or saline (control), in a volume of 1 ml, for the duration of the weaner phase (42 days), as described in Table 2.
Upon commencement of the weaner phase (day 0) and upon completion of the weaner phase (day 42), pigs were […]

[3] = tested on: Actinobacillus pleuropneumoniae (App); test: App challenge of pigs, prophylactic recombinant IL-1ra, plasmid IL-1ra or flunix (Example 5); design: improvements in weight gain over saline controls / reduction in weight gain compared to saline controls / reduction in clinical symptoms compared to saline / reduction of pleurisy compared to saline treated controls / reduction in affected lung mass compared to saline treated controls: concentration or dose not given beside the values
Procedure: Male pigs, with a mean starting weight of 52 kg, were allocated to 5 treatment groups as outlined in Table 6. Pigs were housed in group pens, with each pen containing a replicate from each of the treatment groups. The starting weights of each treatment group and each pen were equal prior to the start of the trial. Pigs were provided with pelleted feed and water ad libitum.
Recombinant IL-1ra and saline-were administered as 1 ml doses, given subcutaneously behind the ear. Plasmids were administered in 1 ml doses, given intramuscularly in the hind-leg. Flunix was administered as a 2 ml dose according to the manufacturer's instructions, and delivered intramuscularly in the neck. The timetable of administration is outlined in Table 6 below.
Prior to challenge, pigs were treated with recombinant cytokines, flunix or plasmids as described Table 7. Pigs were anaesthetised and infected intratracheally with 7.5×10^5 pfu App on day 0.
Blood was sampled from pigs by venipuncture at 0, 24 h and 14 days post-challenge. Blood was assayed for immunological parameters as previously described. Pigs were weighed weekly from delivery of plasmids and for 2 weeks after challenge.
At the conclusion of the trial, pigs were euthanased and the lungs removed for post-mortem examination. Lungs were scored for pleurisy from 0-5 (FIGS. 39 and 40) and the degree of pleuropneumonia was determined by weighing affected lung and expressed as a percentage of total lung weight (FIGS. 41 and 42). Pigs treated with flunix and IL-1ra had less pleurisy than the saline controls (FIG. 39).

[4] = tested on: Actinobacillus pleuropneumoniae (App); test: App challenge of pigs, therapeutic IL-1ra at low and high doses or Excenel (Example 7); details: for feed consumed: FIG. 52
Procedure: Male pigs with a mean starting weight of 34.6 kg, were allocated to 4 treatment groups of 9 pigs each. Treatments were saline, IL-1ra at 2 μg per kg, IL-1ra at 10 μg per kg and Excenel, the current clinical treatment for App infection. Pigs were housed in pens of 3 pigs, with 3 replicates of each. Pigs were provided with pelleted feed and water ad libitum. The starting weights of each treatment group and each pen were equal prior to the start of the trial.
Pigs were anaesthetised and infected intratracheally with 7.5×10^5 pfu on day 0. Recombinant IL-1ra and saline were administered as 2ml doses, given subcutaneously behind the ear. Excenel was administered to pigs according to the manufacturer's instructions. Pigs were treated with IL-1ra, saline or Excenel at 24 h, 48 h and one week after challenge with App.
Blood was sampled from pigs by venipuncture at 0 h, 24 h, 48 h, 1 week and 2 weeks after infection. Blood was assayed for immunological parameters as previously described. Pigs were weighed the day prior to challenge, and days 6 and 13 after challenge.

B1: IL-1ra: Recombinant porcine IL-1ra expressed in E. coli and purified using a polyhis tag system (protein, UniProt Q29056 26-177, looked up)
Interleukin-1 receptor …: HPLGKRPCRMQAFRIWDVNQKTFYLRNNQLVAGYLQGPNTKLEEKIDVVPVEPHFVFLGIHGGKLCLSCVKSGDEMKLQLDAVNITDLRKNSEQDKRFTFIRSDSGPTTSFESAACPGWFLCTALEADQPVGLTNTPKAAVKVTKFYFQQDQ
modifications: polyhistidine tag
notes: Recombinant porcine IL-1ra expressed in E. coli and purified using a polyhis tag system
improved growth compared to saline treated controls ([1]; 21 days of App challenge, low and high doses, FIG. 46): 13.5%
amount of lung affected by App lesions ([1]; high dose, FIG. 47): reduced the amount of lung affected by App lesions
production of the pro-inflammatory cytokine IL-8 (mRNA in lung tissue) ([1]; high dose, FIG. 49): greatly reduced
increase in rate of gain vs saline ([1]; high dose, first 10 days of App challenge, FIG. 43): > 100 g/day
degree of pleurisy seen at post-mortem ([1]; high doses, FIG. 48): reduced
production of TNFα (mRNA in lung tissue) ([1]; high doses, FIG. 50): inhibited
rate of gain ([1]; high doses): 1170 g/day
weight gained during the 21-day challenge period ([1]; low and high doses, FIG. 45): 17.9 kg
rate of gain ([1]; low doses): 1250 g/day
rate of gain over weeks 5 and 6 of the weaner phase ([2]; 200 μg IL-1ra twice weekly, both medicated and non-medicated feeding regimes, FIG. 2): outperforming saline treated pigs
rate of gain over the first 4 weeks of the weaner phase ([2]; 200 μg IL-1ra twice weekly, vs saline controls, FIG. 1): performed as well as saline controls
warm carcass weight ([2]; IL-1ra in absence of antibiotics): equal to that obtained by pigs fed antibiotics and treated with saline
warm carcass weight ([2]; IL-1ra in presence of antibiotics): greater than that of their saline-treated counterparts
average weight at slaughter, heavier than pigs treated with saline and provided with in-feed antibiotics ([2]; IL-1ra in weaner phase in absence of in-feed antibiotics, FIG. 5): 0.7 kg
rate of gain over the grower phase ([2]; IL-1ra in weaner phase with medicated diet): highest rate of gain
rate of gain over the grower phase ([2]; IL-1ra in weaner phase without in-feed medication): grow as quickly as pigs treated with saline and provided with in-feed medication
rate of gain over the finisher phase ([2]; IL-1ra in weaner phase without medicated diet, FIG. 4): highest rate of gain of all groups
feed conversion ratio during the finisher phase ([2]; day 93-day 133, treatment during weaner phase, IL-1ra in absence of in-feed antibiotics, FIG. 7): 2.49
improvements in weight gain over saline controls ([3]; 14d App challenge, FIG. 33): 53.8%
daily rate of gain ([3]; 14d challenge with App, FIG. 32): 667 g per day
reduction in clinical symptoms compared to saline ([3]; FIG. 38): 72%
heavier at the termination of the experiment than saline treated peers ([3]; after 2 weeks of challenge): 4 kg
improvement in growth vs saline ([3]; after 2 weeks of challenge): 69%
production of IL-6 (mRNA in peripheral blood) ([3]; after App challenge, compared with saline treated controls, FIG. 36): reduce the production
growth during the week of challenge ([3]; first week after App challenge, FIG. 30): positive growth
clinical signs of App disease (mean clinical scores over 30 visits) ([3]; first week of challenge, vs saline-treated controls, p<0.05, FIG. 37): significantly reduced clinical signs of disease
reduction in affected lung mass compared to saline treated controls ([3]; percentage of lung affected by App lesions, FIG. 42): 73.9%
reduction of pleurisy compared to saline treated controls ([3]; pleurisy score 0-5 at necropsy, FIG. 40): 22%
feed consumed ([4]; IL-1ra at high dose (10 μg per kg)): 1.8 kg of feed per day
weight gained in the second week of challenge ([4]; IL-1ra at low dose (2 μg per kg), Excenel per manufacturer's instructions, FIG. 51): 5.7 kg
feed consumed ([4]; IL-1ra at low dose (2 μg per kg), Excenel per manufacturer's instructions): 1.7 kg of feed per day
production of IL-8 in the caudal-mediastinal lymph nodes ([4]; low dose IL-1ra, Excenel, compared to saline treated controls): reduced the production of IL-8
feed conversion ratio (FCR, feed:gain) ([4]; low dose IL-1ra, FIG. 53): 1.6
proliferative responses of lymphocytes in the presence of killed App ([4]; low dose IL-1ra, FIG. 54): tended to have improved proliferative responses of lymphocytes
production of the pro-inflammatory cytokine IL-8 in lung tissue (mRNA at post-mortem) ([4]; low doses, compared to other treatments, FIG. 55): reduced the production

Reference: patent publication US20060122105A1, “Method of improing the growth performance of an animal” (priority 2001, published 2006)
